Here are results for one molecule from patent JP2023110925A.

This assay addresses ペプチド13(Aβのaa 13-21) (UniProt P05067). The assay is described as follows: ELISA on biotinylated peptides (Mimotopes format). In general terms: In an ELISA, binding on a coated surface is turned into a signal by an enzyme label.

B1: ヒト化抗ヒトアミロイドβモノクローナル抗体hC2 (antibody, human IgG4 S228P, kappa, V domains shown)
VH: EVQLVESGGGLVQPGGSLRLSCAASGFTFSSYGMSWVRQAPGKGLELVASINSNGGSTYYPDSVKGRFTISRDNAKNSLYLQMNSLRAEDTAVYYCASGDYWGQGTTVTVSS
VL: DIVMTQSPLSLPVTPGEPASISCRSSQSLVYSNGDTYLHWYLQKPGQSPQLLIYKVSNRFSGVPDRFSGSGSGTDFTLKISRVEAEDVGVYYCSQSTHVPWTFGQGTKVEIKR
In turn, B1 had a percent higher affinity than for whole Aβ1-42 protein of 36%.
